Where two headings read alike, the source gives them in different places.
How the values were obtained:
[1] = target: pFAγ::NifD::FLAG fusion polypeptide (Klebsiella pneumoniae (NifD part); Arabidopsis thaliana (pFAγ MTP)); experiment: cell-based or functional assay
[2] = tested on: pFAγ::NifD::HA fusion polypeptide
[3] = target: the molecule itself; experiment: SDS-PAGE and Western blot of N. benthamiana leaf extracts; self-association (band at about double the molecular weight)
[4] = target: T1, FAγ^51::NifD::HA fusion polypeptide (constructs SN6, SN7, SN8)
T1 chain: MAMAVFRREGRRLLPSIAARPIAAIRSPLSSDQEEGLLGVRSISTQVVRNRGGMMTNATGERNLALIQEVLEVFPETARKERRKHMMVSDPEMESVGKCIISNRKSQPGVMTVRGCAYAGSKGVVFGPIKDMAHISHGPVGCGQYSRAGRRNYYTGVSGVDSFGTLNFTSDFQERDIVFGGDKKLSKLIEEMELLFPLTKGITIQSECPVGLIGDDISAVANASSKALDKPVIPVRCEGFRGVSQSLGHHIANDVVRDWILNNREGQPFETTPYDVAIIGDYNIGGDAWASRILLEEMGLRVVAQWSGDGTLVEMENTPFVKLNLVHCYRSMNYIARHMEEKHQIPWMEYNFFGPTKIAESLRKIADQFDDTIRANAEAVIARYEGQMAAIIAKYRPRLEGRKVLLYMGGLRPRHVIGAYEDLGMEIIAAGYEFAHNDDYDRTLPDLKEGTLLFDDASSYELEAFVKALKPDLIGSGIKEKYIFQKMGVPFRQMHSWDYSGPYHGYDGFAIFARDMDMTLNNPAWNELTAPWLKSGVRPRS

[5] = target: T2, pFAγ::NifD::HA fusion polypeptide
T2 chain: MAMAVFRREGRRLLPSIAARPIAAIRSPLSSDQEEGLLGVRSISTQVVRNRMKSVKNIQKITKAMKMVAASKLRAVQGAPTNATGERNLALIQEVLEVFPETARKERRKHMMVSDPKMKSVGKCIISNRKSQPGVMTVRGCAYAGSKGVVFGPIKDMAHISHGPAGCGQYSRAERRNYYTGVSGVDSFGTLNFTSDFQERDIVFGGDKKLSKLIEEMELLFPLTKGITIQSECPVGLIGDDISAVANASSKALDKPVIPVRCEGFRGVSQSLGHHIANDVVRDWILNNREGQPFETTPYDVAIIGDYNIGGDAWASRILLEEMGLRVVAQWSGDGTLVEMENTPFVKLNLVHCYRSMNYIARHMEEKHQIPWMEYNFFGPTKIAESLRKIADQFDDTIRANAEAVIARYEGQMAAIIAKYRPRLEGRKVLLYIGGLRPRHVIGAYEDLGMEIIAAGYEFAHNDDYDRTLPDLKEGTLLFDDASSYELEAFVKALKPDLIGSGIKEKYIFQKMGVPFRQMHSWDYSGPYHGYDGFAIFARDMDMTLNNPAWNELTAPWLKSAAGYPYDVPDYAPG

[6] = target: NifD polypeptide encoded by pMIT2.1 (wild-type nitrogenase gene cluster) in E. coli, P00466
Sequence of NifD polypeptide encoded by pMIT2.1 (wild-type nitrogenase gene cluster) in E. coli, P00466 (P00466 whole entry, looked up): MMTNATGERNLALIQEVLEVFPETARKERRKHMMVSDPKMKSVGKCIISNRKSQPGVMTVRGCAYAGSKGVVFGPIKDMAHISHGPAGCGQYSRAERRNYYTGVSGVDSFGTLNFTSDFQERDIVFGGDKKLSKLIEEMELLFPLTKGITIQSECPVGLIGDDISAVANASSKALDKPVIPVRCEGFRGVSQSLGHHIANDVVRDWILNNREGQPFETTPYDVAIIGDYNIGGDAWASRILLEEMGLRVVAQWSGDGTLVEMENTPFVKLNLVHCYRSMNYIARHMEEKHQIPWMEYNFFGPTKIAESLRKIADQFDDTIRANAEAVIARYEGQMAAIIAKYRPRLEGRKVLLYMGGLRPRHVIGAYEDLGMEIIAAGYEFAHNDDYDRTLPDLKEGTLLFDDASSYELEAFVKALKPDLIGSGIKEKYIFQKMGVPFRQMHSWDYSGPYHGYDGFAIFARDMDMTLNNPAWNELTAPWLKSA

Molecule: pFAγ::NifK fusion polypeptide (pRA25), lacking any C-terminal extension (enzyme)
- level of NifD::FLAG accumulation (band intensity normalised to a background band, Western blot anti-FLAG), co-expression with pRA25 against pRA11 (NifK with C-terminal extension) [1]: 50%

Molecule: pFAγ::NifH::HA fusion polypeptide
- extent of MTP processing of NifD::HA on co-expression (Western blot) [2]: the extent of processing of the MTP sequence fused to NifD::HA was increased in the presence of the NifK and NifH polypeptides

B1: pFAγ::NifB::HA fusion polypeptide (enzyme)
chain: ISTQVVRNRMKSVKNIQKITKAMKMVAASKLRAVQGAPTSCSSFSGGKACRPADDSALTPLVADKAAAHPCYSRHGHHRFARMHLPVAPACNLQCNYCNRKFDCSNESRPGVSSTLLTPEQAVVKVRQVAQAIPQLSVVGIAGPGDPLANIARTFRTLELIREQLPDLKLCLSTNGLVLPDAVDRLLDVGVDHVTVTINTLDAEIAAQIYAWLWLDGERYSGREAGEILIARQLEGVRRLTAKGVLVKINSVLIPGINDSGMAGVSRALRASGAFIHNIMPLIARPEHGTVFGLNGQPEPDAETLAATRSRCGEVMPQMTHCHQCRADAIGMLGEDRSQQFTQLPAPESLPAWLPILHQRAQLHASIATRGESEADDACLVAVASSRGDVIDCHFGHADRFYIYSLSAAGMVLVNERFTPKYCQGRDDCEPQDNAARFAAILELLADVKAVFCVRIGHTPWQQLEQEGIEPCVDGAWRPVSEVLPAWWQQRRGSWPAALPHKGVAAGGGGGYPYDVPDYAPG
notes: Expressed in N. benthamiana; also called pRA03
- binding result [3]: binds

B2: pFAγ::NifS::HA fusion polypeptide (enzyme)
chain: ISTQVVRNRMKSVKNIQKITKAMKMVAASKLRAVQGAPKQVYLDNNATTRLDPMVLEAMMPFLTDFYGNPSSIHDFGIPAQAALERAHQQAAALLGAEYPSEIIFTSCATEATATAIASAIALLPERREIITSVVEHPATLAACEHMEREGYRIHRIAVDGEGALDMAQFRAALSPRVALVSVMWANNETGVLFPIGEMAELAHEQGALFHCDAVQVVGKIPIAVGQTRIDMLSCSAHKFHGPKGVGCLYLRRGTRFRPLLRGGHQEYGRRAGTENICGIVGMGAACELANIHLPGMTHIGQLRNRLEHRLLASVPSVMVMGGGQPAVPGTVNLAFEFIEGEAILLLLNQAGIAASSGSACTSGSLEPSHVMRAMNIPYTAAHGTIRFSLSRYTREKEIDYVVATLPPIIDRLRALSPYWQNGKPRPADAVFTPVYGAGGGGGYPYDVPDYAPG
notes: Expressed in N. benthamiana; also called pRA16
- binding result [3]: binds

B3: pFAγ::NifY::HA fusion polypeptide (other)
chain: ISTQVVRNRMKSVKNIQKITKAMKMVAASKLRAVQGAPSDNDTLFWRMLALFQSLPDLQPAQIVDWLAQESGETLTPERLATLTQPQLAASFPSATAVMSPARWSRVMASLQGALPAHLRIVRPAQRTPQLLAAFCSQDGLVINGHFGQGRLFFIYAFDEQGGWLYDLRRYPSAPHQQEANEVRARLIEDCQLLFCQEIGGPAAARPIRHRIHPMKAQPGTTIQAQCEAINTLLAGRLPPWLAKRLNRDNPLEERVFAGGGGGYPYDVPDYAPG
notes: Expressed in N. benthamiana; also called pRA12
- binding result [3]: binds

B4: pFAγ::NifK fusion polypeptide (pRA25), lacking any C-terminal extension (protein)
chain: MAMAVFRREGRRLLPSIAARPIAAIRSPLSSDQEEGLLGVRSISTQVVRNRMKSVKNIQKITKAMKMVAASKLRAVQGAPSQTIDKINSCYPLFEQDEYQELFRNKRQLEEAHDAQRVQEVFAWTTTAEYEALNFRREALTVDPAKACQPLGAVLCSLGFANTLPYVHGSQGCVAYFRTYFNRHFKEPIACVSDSMTEDAAVFGGNNNMNLGLQNASALYKPEIIAVSTTCMAEVIGDDLQAFIANAKKDGFVDSSIAVPHAHTPSFIGSHVTGWDNMFEGFAKTFTADYQGQPGKLPKLNLVTGFETYLGNFRVLKRMMEQMAVPCSLLSDPSEVLDTPADGHYRMYSGGTTQQEMKEAPDAIDTLLLQPWQLLKSKKVVQEMWNQPATEVAIPLGLAATDELLMTVSQLSGKPIADALTLERGRLVDMMLDSHTWLHGKKFGLYGDPDFVMGLTRFLLELGCEPTVILSHNANKRWQKAMNKMLDASPYGRDSEVFINCDLWHFRSLMFTRQPDFMIGNSYGKFIQRDTLAKGKAFEVPLIRLGFPLFDRHHLHRQTTWGYEGAMNIVTTLVNAVLEKLDSDTSQLGKTDYSFDLVR
- NifD::HA abundance and ratio of processed to unprocessed NifD on co-infiltration (SDS-PAGE, Western blot anti-HA) [4]: the addition of pRA25 in each case greatly enhanced NifD abundance, particularly for the combination of SN7 and pRA25. Most importantly, the ratio of processed to unprocessed NifD was enhanced by the addition of pRA25.
- amount of the approximately 48 kDa NifD::HA degradation product on co-expression (Western blot anti-HA) [4]: the amount of this product was also enhanced by co-expression of pRA25 (NifK)
- extent of MTP processing of NifD::HA on co-expression (Western blot) [5]: the extent of processing of the MTP sequence fused to NifD::HA was increased in the presence of the NifK and NifH polypeptides

B5: modified NifK polypeptide having a 9 amino acid C-terminal extension (YPYDVPDYA), encoded by modified pMIT2.1 (protein)
chain: MSQTIDKINSCYPLFEQDEYQELFRNKRQLEEAHDAQRVQEVFAWTTTAEYEALNFRREALTVDPAKACQPLGAVLCSLGFANTLPYVHGSQGCVAYFRTYFNRHFKEPIACVSDSMTEDAAVFGGNNNMNLGLQNASALYKPEIIAVSTTCMAEVIGDDLQAFIANAKKDGFVDSSIAVPHAHTPSFIGSHVTGWDNMFEGFAKTFTADYQGQPGKLPKLNLVTGFETYLGNFRVLKRMMEQMAVPCSLLSDPSEVLDTPADGHYRMYSGGTTQQEMKEAPDAIDTLLLQPWQLLKSKKVVQEMWNQPATEVAIPLGLAATDELLMTVSQLSGKPIADALTLERGRLVDMMLDSHTWLHGKKFGLYGDPDFVMGLTRFLLELGCEPTVILSHNANKRWQKAMNKMLDASPYGRDSEVFINCDLWHFRSLMFTRQPDFMIGNSYGKFIQRDTLAKGKAFEVPLIRLGFPLFDRHHLHRQTTWGYEGAMNIVTTLVNAVLEKLDSDTSQLGKTDYSFDLVRYPYDVPDYA
- ethylene production in acetylene reduction assay (E. coli DH5α, modified pMIT2.1 + pN249) [6]: the 9-amino acid C-terminal extension added to NifK completely abolished ethylene production
